Experiment [1] addresses T1, biotinylated human GPIIb/IIIa ectodomain protein (human, UniProt P08514 32-993; P05106 27-718, biotinylated (site not stated)).
T1 construct: extracellular domain; also called purified GPIIb/IIIa
The experiment can be described thus: SPR, biotinylated GPIIb/IIIa ectodomain on streptavidin chip, fusion protein as analyte, 1:1 model.

Experiment [2] has as its target T1, biotinylated human GPIIb/IIIa …. The experiment can be described thus: surface plasmon resonance, biotinylated GPIIb/IIIa ectodomain on a streptavidin chip, analyte at 6.2 to 500 nM, 1:1 binding model.
From the text: The GPIIb/IIIa ectodomain protein was immobilized on an SPR chip coated with streptavidin (GE Healthcare).
In experiment [3] the target is T2, GPIIb/IIIa (SEQ ID NOs: 23 and 24) (human, UniProt P08514 32-994; P05106 27-716).
T2 construct: also called GPIIb/IIIa complex
The experiment can be described thus: Bio-Layer Interferometry (OctetRed), monovalent format, yeast-purified Fab; apparent dissociation rate Kdis.
Method: (§1) BLI was performed on the OctetRed94 instrument, manufactured by ForteBio, according to standard procedures.

In experiment [4] the target is T1, biotinylated human GPIIb/IIIa …. The experiment can be described thus: SPR, biotinylated GPIIb/IIIa ectodomain on streptavidin chip, Fab as analyte, 1:1 model.
Method: The GPIIb/IIIa ectodomain protein was immobilized on an SPR chip coated with streptavidin (GE Healthcare). Next, the association and dissociation rates of Fab binding to GPIIb/IIIa at sequentially increasing concentrations of the Fab were measured following methods known in the art. The kinetic parameters were derived from a 1:1 binding model.
Experiment [5] has as its target T2, GPIIb/IIIa (SEQ ID NOs: 23 and 24). The experiment can be described thus: Bio-Layer Interferometry (OctetRed), monovalent format, yeast-purified Fab; apparent monovalent affinity.
Method: as §1

Numbering of substitutions follows the chain as printed.

T2 sequence (P08514 32-994 limits assumed, chain 1 of 2): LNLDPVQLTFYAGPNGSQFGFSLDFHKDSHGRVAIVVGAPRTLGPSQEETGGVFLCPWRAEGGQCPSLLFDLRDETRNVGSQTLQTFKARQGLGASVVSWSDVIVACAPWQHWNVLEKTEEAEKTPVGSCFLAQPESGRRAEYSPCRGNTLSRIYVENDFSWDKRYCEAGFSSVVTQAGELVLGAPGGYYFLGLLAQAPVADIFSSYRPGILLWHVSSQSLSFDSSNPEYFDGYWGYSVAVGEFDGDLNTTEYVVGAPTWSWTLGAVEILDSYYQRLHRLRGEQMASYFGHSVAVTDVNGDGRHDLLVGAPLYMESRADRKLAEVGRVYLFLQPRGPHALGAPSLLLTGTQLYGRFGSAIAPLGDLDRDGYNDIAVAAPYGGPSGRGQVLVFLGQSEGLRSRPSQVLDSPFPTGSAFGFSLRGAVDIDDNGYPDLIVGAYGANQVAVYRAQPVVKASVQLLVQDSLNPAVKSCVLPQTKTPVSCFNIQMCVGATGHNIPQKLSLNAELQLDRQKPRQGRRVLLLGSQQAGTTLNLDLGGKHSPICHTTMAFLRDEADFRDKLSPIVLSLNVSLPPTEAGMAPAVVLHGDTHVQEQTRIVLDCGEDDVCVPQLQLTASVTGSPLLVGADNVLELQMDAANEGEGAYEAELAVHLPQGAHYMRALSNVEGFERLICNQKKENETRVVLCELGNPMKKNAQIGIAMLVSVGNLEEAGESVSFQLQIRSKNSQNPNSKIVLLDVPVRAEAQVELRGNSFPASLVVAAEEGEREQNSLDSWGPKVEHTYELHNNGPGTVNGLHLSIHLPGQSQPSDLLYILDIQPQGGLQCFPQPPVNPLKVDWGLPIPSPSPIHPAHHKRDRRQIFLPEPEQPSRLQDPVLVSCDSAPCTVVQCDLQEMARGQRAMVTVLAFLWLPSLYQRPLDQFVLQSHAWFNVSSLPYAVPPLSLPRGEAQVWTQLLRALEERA
T2 sequence (P05106 27-716 limits assumed, chain 2 of 2): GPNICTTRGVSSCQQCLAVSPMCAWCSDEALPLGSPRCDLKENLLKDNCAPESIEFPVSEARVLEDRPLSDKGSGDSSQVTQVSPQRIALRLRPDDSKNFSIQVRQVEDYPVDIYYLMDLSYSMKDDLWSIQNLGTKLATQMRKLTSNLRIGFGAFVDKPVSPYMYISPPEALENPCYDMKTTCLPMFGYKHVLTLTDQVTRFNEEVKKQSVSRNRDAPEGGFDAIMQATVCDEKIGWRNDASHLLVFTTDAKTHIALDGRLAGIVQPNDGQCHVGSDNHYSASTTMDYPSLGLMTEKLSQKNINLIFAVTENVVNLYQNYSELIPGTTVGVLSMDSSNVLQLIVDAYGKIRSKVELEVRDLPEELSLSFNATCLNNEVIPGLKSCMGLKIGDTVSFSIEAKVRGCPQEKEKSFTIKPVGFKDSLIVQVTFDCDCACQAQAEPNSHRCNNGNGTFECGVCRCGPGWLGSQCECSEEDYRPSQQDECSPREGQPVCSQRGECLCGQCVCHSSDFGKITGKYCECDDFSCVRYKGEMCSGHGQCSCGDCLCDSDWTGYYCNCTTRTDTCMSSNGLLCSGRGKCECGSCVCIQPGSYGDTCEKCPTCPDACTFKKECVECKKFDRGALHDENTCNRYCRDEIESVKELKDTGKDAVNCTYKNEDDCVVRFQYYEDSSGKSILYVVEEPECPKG
T1 sequence (P08514 32-993, chain 1 of 2): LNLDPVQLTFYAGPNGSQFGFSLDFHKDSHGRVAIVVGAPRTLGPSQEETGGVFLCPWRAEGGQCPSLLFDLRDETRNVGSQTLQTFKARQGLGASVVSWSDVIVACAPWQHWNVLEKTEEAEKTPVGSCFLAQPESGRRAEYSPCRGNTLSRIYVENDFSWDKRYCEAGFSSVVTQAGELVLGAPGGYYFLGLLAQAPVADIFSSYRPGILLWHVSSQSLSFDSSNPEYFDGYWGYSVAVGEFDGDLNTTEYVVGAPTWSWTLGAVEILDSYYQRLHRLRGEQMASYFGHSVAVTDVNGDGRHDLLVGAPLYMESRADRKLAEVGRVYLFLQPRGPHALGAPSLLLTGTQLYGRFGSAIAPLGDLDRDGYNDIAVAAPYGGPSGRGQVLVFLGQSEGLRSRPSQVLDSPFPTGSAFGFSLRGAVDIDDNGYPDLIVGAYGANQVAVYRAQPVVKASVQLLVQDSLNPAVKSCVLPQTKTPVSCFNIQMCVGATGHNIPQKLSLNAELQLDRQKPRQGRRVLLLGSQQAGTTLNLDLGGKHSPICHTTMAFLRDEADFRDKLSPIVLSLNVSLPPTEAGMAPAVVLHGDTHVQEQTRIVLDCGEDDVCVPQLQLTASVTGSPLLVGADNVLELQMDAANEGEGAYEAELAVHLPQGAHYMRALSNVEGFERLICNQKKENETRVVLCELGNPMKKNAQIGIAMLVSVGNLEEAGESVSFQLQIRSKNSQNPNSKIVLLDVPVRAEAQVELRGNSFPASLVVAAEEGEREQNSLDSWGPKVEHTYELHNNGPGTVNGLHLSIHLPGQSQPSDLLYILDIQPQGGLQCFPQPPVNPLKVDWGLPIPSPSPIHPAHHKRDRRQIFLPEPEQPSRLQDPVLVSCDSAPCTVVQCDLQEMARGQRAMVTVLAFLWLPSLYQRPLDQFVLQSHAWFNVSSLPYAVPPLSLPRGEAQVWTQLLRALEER
T1 sequence (P05106 27-718, chain 2 of 2): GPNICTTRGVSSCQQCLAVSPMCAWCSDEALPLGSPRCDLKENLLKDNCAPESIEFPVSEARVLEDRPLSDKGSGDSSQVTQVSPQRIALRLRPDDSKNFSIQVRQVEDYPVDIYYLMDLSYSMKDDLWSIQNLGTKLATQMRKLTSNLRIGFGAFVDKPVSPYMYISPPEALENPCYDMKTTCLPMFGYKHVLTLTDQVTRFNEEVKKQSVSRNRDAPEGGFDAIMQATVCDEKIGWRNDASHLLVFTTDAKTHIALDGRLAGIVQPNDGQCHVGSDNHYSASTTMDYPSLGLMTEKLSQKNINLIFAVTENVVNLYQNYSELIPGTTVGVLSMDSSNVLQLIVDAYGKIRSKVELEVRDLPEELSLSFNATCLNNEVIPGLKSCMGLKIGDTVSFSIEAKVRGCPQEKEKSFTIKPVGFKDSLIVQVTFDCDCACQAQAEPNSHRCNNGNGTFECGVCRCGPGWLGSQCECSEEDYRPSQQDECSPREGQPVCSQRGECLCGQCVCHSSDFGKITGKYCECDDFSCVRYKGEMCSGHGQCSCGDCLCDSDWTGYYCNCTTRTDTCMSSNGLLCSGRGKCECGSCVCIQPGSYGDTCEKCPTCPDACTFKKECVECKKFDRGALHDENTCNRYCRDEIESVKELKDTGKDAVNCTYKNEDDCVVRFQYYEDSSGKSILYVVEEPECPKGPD

B1: FVII-250/Fab-062 (other)
chain: ANAFLEELRPGSLERECKEEQCSFEEAREIFKDAERTKLFWISYSDGDQCASSPCQNGGSCKDQLQSYICFCLPAFEGRNCETHKDDQLICVNENGGCEQYCSDHTGTKRSCRCHEGYSLLADGVSCTPTVEYPCGKIPILEKRNASKPQGRIVGGKVCPKGECPWQVLLLVNGAQLCGGTLINTIWVVSAAHCFDKIKNWRNLIAVLGEHDLSEHDGDEQSRRVAQVIIPSTYVPGTTNHDIALLRLHQPVVLTDHVVPLCLPERTFSERTLAFVRFSLVSGWGQLLDRGATALELMVLNVPRLMTQDCLQQSRKVGDSPNITEYMFCAGYSDGSKDSCKGDSGGPHATHYRGTWYLTGIVSWGQGCATVGHFGVYTRVSQYIEWLQKLMRSEPRPGVLLRAPFPGGGGSGGGGSGGGGSGGGGSGGGGSGGGGSEIVMTQSPATLSVSPGERATLSCRASSSVNYMYWYQQKPGQAPRLLIYYTSNLAPGIPARFSGSGSGTEFTLTISSLQSEDFAVYYCQQFSSSPWTFGQGTKVEIKRTVAAPSVFIFPPSDEQLKSGTASVVCLLNNFYPREAKVQWKVDNALQSGNSQESVTEQDSKDSTYSLSSTLTLSKADYEKHKVYACEVTHQGLSSPVTKSFNRGEC
heavy: EGTSESATPESGPGSEPATSGSETPGTSESATPESGPGSEPATSGSETPGTSESATPESGPGTSTEPSEGSAPGSPAGSPTSTEEGTSESATPESGPGSEPATSGSETPGTSESATPESGPGSPAGSPTSTEEGSPAGSPTSTEEGTSTEPSEGSAPGTSESATPESGPGTSESATPESGPGTSESATPESGPGSEPATSGSETPGSEPATSGSETPGSPAGSPTSTEEGTSTEPSEGSAPGTSTEPSEGSAPGSEPATSGSETPGTSESATPESGPGTSTEPSEGSAPEVQLVESGGGLVKPGGSLRLSCAASGFTFSAYAMSWVRQAPGKGLVWVASISSGGTTYYPDSVKRQFTISRDNAKNTLYLQMNSLRAEDTAVYYCTRGGDYGYALDYWGQGTLVTVSSASTKGPSVFPLAPSSKSTSGGTAALGCLVKDYFPEPVTVSWNSGALTSGVHTFPAVLQSSGLYSLSSVVTVPSSSLGTQTYICNVNHKPSNTKVDKKVEPKSC
notes: also called Fab-250/Fab-062 (as printed once)
Turning to B1, the Kd in experiment [1] amounted to 730 nM. For the same molecule, in experiment [2], the koff was determined as 0.0174 s⁻¹ and the kon is 23700 M⁻¹ s⁻¹.

B2: humanized 34D10 Fab L0/H2 (Fab, V domains shown)
VH: EVQLVESGGGLVKPGGSLRLSCAASGFTFSAYAMSWVRQAPGKGLVWVASISSGGTTYYPDSVKRQFTISRDNAKNTLYLQMNSLRAEDTAVYYCTRGGDYGYALDYWGQGTLVTVSS
VL: EIVMTQSPATLSVSPGERATLSCRASSSVNYMYWYQQKPGQAPRLLIYYTSNLAPGIPARFSGSGSGTEFTLTISSLQSEDFAVYYCQQFSSSPWTFGQGTKVEIK
notes: Fab; also called VL0/VH2
Consider B2, for which, in experiment [3], the koff is 0.0563 s⁻¹. Also, the results for the Kd in experiment [4] and in experiment [5] were 2.8 nM and 155 nM, respectively.

B3: humanized 34D10 Fab L1/H3 (Fab, V domains shown)
VH: B2 VH with E6Q, G16E, V46E, Q66R
VL: B2 VL with M4L, I57V
notes: Fab; only variable domains are tied by name; also called VL1/VH3
For B3, the Kd in experiment [4] was found to be 110 nM.

B4: humanized 34D10 Fab L0/H5 (Fab, V domains shown)
VH: B2 VH with Q3K, V46E, Q66R, K75R
VL: B2 VL
notes: Fab; also called VL0/VH5
B4 came in with a Kd in experiment [4] of 5.3 nM.

B5: affinity matured h34D10 Fab VH109/VL0 (Fab, V domains shown)
VH: B2 VH with Y58D
VL: B2 VL
notes: Yeast-purified Fab
In the case of B5, the off-rate constant (koff) in experiment [3] turned out to be 0.031 s⁻¹. Moreover, the Kd in experiment [5] turned out to be 120 nM.

B6: affinity matured h34D10 Fab VH118/VL0 (Fab, V domains shown)
VH: B2 VH with E1G, T112A
VL: B2 VL
notes: Yeast-purified Fab
In the case of B6, the off-rate (koff) in experiment [3] stood at 0.0478 s⁻¹. In addition, the Kd in experiment [5] was 200 nM.

B7: affinity matured h34D10 Fab VH110/VL0 (Fab, V domains shown)
VH: B2 VH with S30N
VL: B2 VL
notes: Yeast-purified Fab
As to B7, in experiment [3], the dissociation rate constant (koff) was 0.0337 s⁻¹. In addition, the Kd in experiment [5] was 130 nM.

B8: affinity matured h34D10 Fab VH107/VL0 (Fab, V domains shown)
VH: B2 VH with G16E, K43E, G102S
VL: B2 VL
notes: Yeast-purified Fab
With B8, in experiment [3], the koff turned out to be 0.0142 s⁻¹. Also, the Kd in experiment [5] amounted to 48 nM.

B9: affinity matured h34D10 Fab VH106/VL0 (Fab, V domains shown)
VH: B2 VH with S7C, G102S
VL: B2 VL
notes: Yeast-purified Fab
B9: the koff in experiment [3] was 0.0127 s⁻¹. Besides, the Kd in experiment [5] came out at 44 nM.

B10: affinity matured h34D10 Fab VH103/VL0 (Fab, V domains shown)
VH: B2 VH with M82V, G102S
VL: B2 VL
notes: Yeast-purified Fab
Consider B10, for which the koff in experiment [3] stood at 0.0103 s⁻¹. Further, in experiment [5], the Kd was 37 nM.

B11: affinity matured h34D10 Fab VH105/VL0 (Fab, V domains shown)
VH: B2 VH with G102S
VL: B2 VL
notes: Yeast-purified Fab
For B11, the koff in experiment [3] was found to be 0.0114 s⁻¹. Moreover, the Kd in experiment [5] worked out at 42 nM.

B12: affinity matured h34D10 Fab VH120/VL0 (Fab, V domains shown)
VH: B2 VH with K13E
VL: B2 VL
notes: Yeast-purified Fab
As to B12, the koff in experiment [3] stood at 0.0492 s⁻¹. Further, the Kd in experiment [5] was 240 nM.

B13: affinity matured h34D10 Fab VH108/VL0 (Fab, V domains shown)
VH: B2 VH with G54D, K75R, G102S
VL: B2 VL
notes: Yeast-purified Fab
Take B13: the koff in experiment [3] turned out to be 0.0193 s⁻¹. For the same molecule, the Kd in experiment [5] was found to be 49 nM.

B14: affinity matured h34D10 Fab VH101/VL0 (Fab, V domains shown)
VH: B2 VH with K64E, G102S
VL: B2 VL
notes: Yeast-purified Fab
In the case of B14, in experiment [3], the koff came out at 0.00836 s⁻¹. Further, in experiment [5], the Kd was determined as 25 nM.

B15: affinity matured h34D10 Fab VH121/VL0 (Fab, V domains shown)
VH: B2 VH with K43E
VL: B2 VL
notes: Yeast-purified Fab
On to B15, for which the koff in experiment [3] is 0.0494 s⁻¹. Besides, the Kd in experiment [5] is 230 nM.

B16: affinity matured h34D10 Fab VH114/VL0 (Fab, V domains shown)
VH: B2 VH with V2M
VL: B2 VL
notes: Yeast-purified Fab
In the case of B16, the koff in experiment [3] came out at 0.0393 s⁻¹. The Kd in experiment [5] was 130 nM.

B17: affinity matured h34D10 Fab VH119/VL0 (Fab, V domains shown)
VH: B2 VH with E1G
VL: B2 VL
notes: Yeast-purified Fab
With B17, the koff in experiment [3] worked out at 0.0482 s⁻¹. For the same molecule, in experiment [5], the Kd came to 140 nM.

B18: affinity matured h34D10 Fab VH112/VL0 (Fab, V domains shown)
VH: B2 VH with K43E, S50G
VL: B2 VL
notes: Yeast-purified Fab
For B18, in experiment [3], the koff amounted to 0.0352 s⁻¹. Besides, the Kd in experiment [5] stood at 160 nM.

B19: affinity matured h34D10 Fab VH111/VL0 (Fab, V domains shown)
VH: B2 VH with S30N, K43E
VL: B2 VL
notes: Yeast-purified Fab
As for B19, in experiment [3], the off-rate (koff) came out at 0.0352 s⁻¹. Besides, in experiment [5], the Kd worked out at 150 nM.

B20: affinity matured h34D10 Fab VH102/VL0 (Fab, V domains shown)
VH: B2 VH with G102S, S118F
VL: B2 VL
notes: Yeast-purified Fab
With B20, the koff in experiment [3] was determined as 0.00977 s⁻¹. In experiment [5], the Kd came out at 36 nM.

B21: affinity matured h34D10 Fab VH115/VL0 (Fab, V domains shown)
VH: B2 VH with E1G, N73D
VL: B2 VL
notes: Yeast-purified Fab
Regarding B21, the koff in experiment [3] was determined as 0.0429 s⁻¹. The Kd in experiment [5] was 120 nM.

B22: affinity matured h34D10 Fab VH100/VL0 (Fab, V domains shown)
VH: B2 VH with S30G, G102S
VL: B2 VL
notes: Yeast-expressed, protein A purified, then made into Fab
With B22, the dissociation rate constant (koff) in experiment [3] was 0.00822 s⁻¹. The Kd in experiment [5] was 29 nM.

B23: affinity matured h34D10 Fab VH104/VL0 (Fab, V domains shown)
VH: B2 VH with G102S, Q110R
VL: B2 VL
notes: Yeast-purified Fab
Regarding B23, in experiment [3], the koff worked out at 0.0113 s⁻¹. Moreover, in experiment [5], the Kd was 31 nM.

B24: affinity matured h34D10 Fab VH113/VL0 (Fab, V domains shown)
VH: B2 VH with S50G
VL: B2 VL
notes: Yeast-purified Fab
For the molecule B24, the dissociation rate constant (koff) in experiment [3] is 0.0372 s⁻¹. In experiment [5], the Kd came to 160 nM.

B25: affinity matured h34D10 Fab VH116/VL0 (Fab, V domains shown)
VH: B2 VH with N73D
VL: B2 VL
notes: Yeast-purified Fab
As for B25, in experiment [3], the koff was found to be 0.0432 s⁻¹. For the same molecule, the Kd in experiment [5] was determined as 130 nM.

B26: affinity matured h34D10 Fab VH117/VL0 (Fab, V domains shown)
VH: B2 VH with V2A
VL: B2 VL
notes: Yeast-purified Fab
In the case of B26, the koff in experiment [3] is 0.0435 s⁻¹. Besides, in experiment [5], the Kd is 160 nM.

B27: mouse Fab (34D10) (Fab, V domains shown)
VH: EVKLVESGGGLVKPGGSLKLSCAASGFTFSAYAMSWVRQTPEKRLEWVASISSGGTTYYPDSVKRRFTISRDNARNILYLQMSSLRSEDTAMYYCTRGGDYGYALDYWGQGTSVTVSS
VL: ENVLTQSPAIMSASLGEKVTMSCRASSSVNYMYWYQQKSDASPKLWIYYTSNLAPGVPARFSGSGSGNSYSLTISSMEGEDAATYYCQQFSSSPWTFGGGTKLEIK
notes: Fab; also called mouse 34D10 Fab
In experiment [4], B27 returned a Kd of 2.8 nM.
